This note sets out measurements from US7223556 (Harvard, dated 2007).

In test [1] the target is Skp1p (Saccharomyces cerevisiae) (UniProt P52286). As to the kind of experiment: cell-based or functional assay.
The target of test [2] is retinoblastoma tumor suppressor protein (pRB) (UniProt P06400). As to the kind of experiment: cell-based or functional assay.
Test [3] has as its target EE-tagged HPV16-E2 (human papillomavirus type 16) (UniProt P03120). Description: cell-based or functional assay.
Test [4] addresses T1, retinoblastoma tumor suppressor protein (pRB) (UniProt P06400 1-928).
T1 construct: For the co-immunoprecipitation it was translated in vitro and 35S-labelled; In yeast Y81 cells it was expressed from plasmid p2202TRB
T1 sequence: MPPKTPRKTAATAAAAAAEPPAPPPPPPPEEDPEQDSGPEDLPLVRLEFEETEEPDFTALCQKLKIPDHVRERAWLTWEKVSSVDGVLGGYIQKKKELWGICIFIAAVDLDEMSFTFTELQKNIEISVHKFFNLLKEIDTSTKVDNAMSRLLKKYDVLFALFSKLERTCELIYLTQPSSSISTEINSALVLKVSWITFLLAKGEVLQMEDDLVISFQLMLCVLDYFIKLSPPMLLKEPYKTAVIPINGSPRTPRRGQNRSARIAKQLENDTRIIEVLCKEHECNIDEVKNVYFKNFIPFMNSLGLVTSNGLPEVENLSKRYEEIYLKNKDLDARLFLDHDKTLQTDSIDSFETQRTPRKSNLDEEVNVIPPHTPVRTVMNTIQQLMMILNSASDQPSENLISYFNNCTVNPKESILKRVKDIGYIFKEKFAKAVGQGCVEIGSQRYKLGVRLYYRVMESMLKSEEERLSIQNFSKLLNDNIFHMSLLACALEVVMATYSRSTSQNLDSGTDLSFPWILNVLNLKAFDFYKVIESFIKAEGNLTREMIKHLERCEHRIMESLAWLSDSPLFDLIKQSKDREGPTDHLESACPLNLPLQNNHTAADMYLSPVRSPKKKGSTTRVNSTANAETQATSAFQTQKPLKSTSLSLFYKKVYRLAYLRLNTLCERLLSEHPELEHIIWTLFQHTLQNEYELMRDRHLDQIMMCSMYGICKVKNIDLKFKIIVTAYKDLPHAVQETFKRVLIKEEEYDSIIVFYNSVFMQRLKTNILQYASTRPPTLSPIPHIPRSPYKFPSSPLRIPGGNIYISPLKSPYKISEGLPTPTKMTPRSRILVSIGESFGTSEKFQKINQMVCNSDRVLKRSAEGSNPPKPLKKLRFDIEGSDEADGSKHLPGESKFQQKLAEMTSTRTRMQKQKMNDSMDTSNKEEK
Description: co-immunoprecipitation of in vitro translated 35S-labelled proteins with anti-Flag M2 antibody, SDS PAGE.

Skp1p (Saccharomyces cerevisiae), sequence (P52286 whole entry): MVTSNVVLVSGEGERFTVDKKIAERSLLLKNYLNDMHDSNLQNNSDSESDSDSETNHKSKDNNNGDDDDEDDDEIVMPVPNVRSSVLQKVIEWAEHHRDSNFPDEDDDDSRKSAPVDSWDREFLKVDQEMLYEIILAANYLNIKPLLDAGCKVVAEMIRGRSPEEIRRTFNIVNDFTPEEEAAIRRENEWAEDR
EE-tagged HPV16-E2 (human papillomavirus type 16), sequence (P03120 whole entry): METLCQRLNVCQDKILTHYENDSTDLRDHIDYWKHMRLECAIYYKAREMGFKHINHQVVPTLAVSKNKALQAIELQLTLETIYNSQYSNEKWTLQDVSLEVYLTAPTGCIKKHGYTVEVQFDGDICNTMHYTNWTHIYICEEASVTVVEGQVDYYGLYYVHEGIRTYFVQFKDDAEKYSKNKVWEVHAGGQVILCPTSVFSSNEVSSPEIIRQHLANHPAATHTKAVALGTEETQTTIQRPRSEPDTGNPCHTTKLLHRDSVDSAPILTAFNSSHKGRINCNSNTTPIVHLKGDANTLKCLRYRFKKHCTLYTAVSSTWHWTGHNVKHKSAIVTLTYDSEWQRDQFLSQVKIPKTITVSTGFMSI

In the case of “Cdc4p^F/WD-βgal (from UniProt P00722 10-1024)”, the half life of the βgal fusion after promoter shut-off in KY130 cells in test [1] is 35 min.
Molecule Cdc4p(ΔF) yielded a half life of the mutant Cdc4p protein after promoter shut-off in KY130 cells in test [1] of more than 60 min.
As for “Cdc4p^F/WD-E7N (from UniProt P03129 2-35)”, the half life of pRB after promoter shut-off in Y81 yeast cells in test [2] worked out at 70 minutes.
For the molecule “Cdc4p(G300D) (from UniProt P07834 1-779)”, the half life of the mutant Cdc4p protein after promoter shut-off in KY130 cells in test [1] is more than 60 min.
“Cdc4p^F/WD-E1C (from UniProt P03114 424-649)” gave a half life of EE-E2 after promoter shut-off in INVSc1 yeast cells in test [3] of 16 min.

B1: Flag-tagged βTrCP (other)
chain: MDPAEAVLQEKALKFMNSSEREDCNNGEPPRKIIPEKNSLRQTYNSCARLCLNQETVCLASTAMKTENCVAKTKLANGTSSMIVPKQRKLSASYEKEKELCVKYFEQWSESDQVEFVEHLISQMCHYQHGHINSYLKPMLQRDFITALPARGLDHIAENILSYLDAKSLCAAELVCKEWYRVTSDGMLWKKLIERMVRTDSLWRGLAERRGWGQYLFKNKPPDGNAPPNSFYRALYPKIIQDIETIESNWRCGRHSLQRIHCRSETSKGVYCLQYDDQKIVSGLRDNTIKIWDKNTLECKRILTGHTGSVLCLQYDERVIITGSSDSTVRVWDVNTGEMLNTLIHHCEAVLHLRFNNGMMVTCSKDRSIAVWDMASPTDITLRRVLVGHRAAVNVVDFDDKYIVSASGDRTIKVWNTSTCEFVRTLNGHKRGIACLQYRDRLVVSGSSDNTIRLWDIECGACLRVLEGHEELVRCIRFDNKRIVSGAYDGKIKVWDLVAALDPRAPAGTLCLRTLVEHSGRVFRLQFDEFQIVSSSHDDTILIWDFLNDPAAQAEPPRSPSRTYTYISR
notes: Untagged βTrCP in lane 1 is the control for the anti-Flag immunoprecipitation; also called F-βTrCP; F-TrCP
As to B1, the binding result in test [4] is “no binding”.
